# Results as given in patent US20040091964A1, “Modified proteins, isolated novel peptides,and uses thereof” (priority 2003, published 2004).
# “Also recorded” adds a separate entry of the source.
# B1: modified MRP4 polypeptide: modified human MRP4 polypeptide lacking the T-K-F motif (terminal 3 amino acids deleted) (protein, listed as Homo sapiens)
# chain: MLPVYQEVKPNPLQDANLCSRVFFWWLNPLFKIGHKRRLEEDDMYSVLPEDRSQHLGEELQGFWDKEVLRAENDAQKPSLTRAIIKCYWKSYLVLGIFTLIEESAKVIQPIFLGKIINYFENYDPMDSVALNTAYAYATVLTFCTLILAILHHLYFYHVQCAGMRLRVAMCHMIYRKALRLSNMAMGKTTTGQIVNLLSNDVNKFDQVTVFLHFLWAGPLQAIAVTALLWMEIGISCLAGMAVLIILLPLQSCFGKLFSSLRSKTATFTDARIRTMNEVITGIRIIKMYAWEKSFSNLITNLRKKEISKILRSSCLRGMNLASFFSASKIIVFVTFTTYVLLGSVITASRVFVAVTLYGAVRLTVTLFFPSAIERVSEAIVSIRRIQTFLLLDEISQRNRQLPSDGKKMVHVQDFTAFWDKASETPTLQGLSFTVRPGELLAVVGPVGAGKSSLLSAVLGELAPSHGLVSVHGRIAYVSQQPWVFSGTLRSNILFGKKYEKERYEKVIKACALKKDLQLLEDGDLTVIGDRGTTLSGGQKARVNLARAVYQDADIYLLDDPLSAVDAEVSRHLFELCICQILHEKITILVTHQLQYLKAASQILILKDGKMVQKGTYTEFLKSGIDFGSLLKKDNEESEQPPVPGTPTLRNRTFSESSVWSQQSSRPSLKDGALESQDTENVPVTLSEENRSEGKVGFQAYKNYFRAGAHWIVFIFLILLNTAAQVAYVLQDWWLSYWANKQSMLNVTVNGGGNVTEKLDLNWYLGIYSGLTVATVLFGIARSLLVFYVLVNSSQTLHNKMFESILKAPVLFFDRNPIGRILNRFSKDIGHLDDLLPLTFLDFIQTLLQVVGVVSVAVAVIPWIAIPLVPLGIIFIFLRRYFLETSRDVKRLESTTRSPVFSHLSSSLQGLWTIRAYKAEERCQELFDAHQDLHSEAWFLFLTTSRWFAVRLDAICAMFVIIVAFGSLILAKTLDAGQVGLALSYALTLMGMFQWCVRQSAEVENMMISVERVIEYTDLEKEAPWEYQKRPPPAWPHEGVIIFDNVNFMYSPGGPLVLKHLTALIKSQEKVGIVGRTGAGKSSLISALFRLSEPEGKIWIDKILTTEIGLHDLRKKMSIIPQEPVLFTGTMRKNLDPFNEHTDEELWNALQEVQLKETIEDLPGKMDTELAESGSNFSVGQRQLVCLARAILRKNQILIIDEATANVDPRTDELIQKKIREKFAHCTVLTIAHRLNTIIDSDKIMVLDSGRLKEYDEPYVLLQNKESLFYKMVQQLGKAEAAALTETAKQVYFKRNYPHIGHTDHMVTNTSNGQPSTLTIFE
# Experiments:
# MDCK cells = assay: Localization of GFP fusion proteins in polarized MDCK cells by confocal microscopy; type: cell-based, canine; details: GFP fusion protein, confluent MDCK cells on Transwell membranes
# Procedure: The cMOAT-gfp and MRP1-gfp constructs supra (1 μg of DNA per transfection) were separately transfected into MDCK cells and L1210 cells using a UpofectAMINE transfection kit (Life Technologies, Inc.). Transfections of MDCK cells were carried out using Transwell plates (Costar, 24 mm×3 μm polycarbonate membrane) to enable cell polarization. Cells were imaged using a NikonTE300 inverted microscope linked to a Radiance 2000 Laser Scanning System for confocal microscopy and Lasersharp 2000 imaging software (Bio-Rad).
# To conveniently detect the localization of the proteins under investigation, GFP fusion proteins were produced and their localization visualized using confocal microscopy to visualize the fluorescent product, as described supra. […]
# L1210 cells [1] = assay: Survival of L1210 cells in the presence of Busulfan; type: cell-based, mouse; details: versus non-transfected L1210 cells or L1210 cells expressing native cMOAT
# Procedure: Accordingly, the ability of modified cMOAT polypeptides to confer resistance to Busulfan was determined in L1210 cells. In particular, the ΔcMOAT polypeptide having the amino acid sequence set forth in SEQ ID NO: 4, was expressed in L1210 cells as described in Example 1. The transfected cells were exposed to a range of concentrations of Busulfan. The survival of wild type L1210 cells, and transfected L1210 cells expressing either native cMOAT or ΔcMOAT, was determined in the presence of Busulfan. Survival was also assessed relative to the growth of cells that had not been exposed to Busulfan. Cell growth and survival were assayed using standard procedures (Denizot et al (1986), J. Immunol. Methods 89, 271-277).
# L1210 cells [2] = assay: 2,4-Dinitrophenyl glutathione (DNP-GS) transport from L1210 cells; type: cell-based, mouse; details: L1210 cells expressing the protein, compared with control L1210 cells; spectrophotometry
# Source text: DNP-GS was generated in L1210 cells by exposure to 1-chloro-2,4-dinitrobenzene and its efflux determined as described previously (Olive et al., (1994) Biochim. Biophys. Acta 1224, 264-268).
# L1210 cells [3] = assay: [3H]paclitaxel transport from L1210 cells expressing modified MDR3; type: cell-based, mouse; details: L1210 cells stably expressing the polypeptide without GFP tag, compared to control L1210 cells
# Procedure: The transport of [^3H]paclitaxel is determined from L1210 cells expressing the modified MDR3 polypeptide and compared to the efflux of [^3H]paclitaxel from control L1210 cells not ectopically expressing any MDR3 polypeptide.
# L1210 cells [4] = assay: 6-mercaptopurine transport (6-thio-IMP efflux) from L1210 cells expressing modified MRP4; type: cell-based, mouse; details: L1210 cells stably expressing the polypeptide without GFP tag, compared to control L1210 cells or L1210 cells expressing native MRP4
# Procedure: Radiolabeled 6-mercaptopurine is added to L1210 cells expressing the modified MRP4 polypeptide and the efflux of 6-thio-IMP compared to the efflux of 6-thio-IMP from L1210 cells expressing native MRP4, or alternatively, the efflux of 6-thio-IMP from control L1210 cells not ectopically expressing any MRP4 polypeptide.
molecule,measurement,setting,value
"S1542A: modified cMOAT polypeptide with Ser1542 mutated to alanine, tested as cMOAT-gfp fusion",membrane localization in polarized MDCK cells,MDCK cells,fluorescence appears to be in sub-membrane vesicles
"T1543A: modified cMOAT polypeptide with Thr1543 mutated to alanine, tested as cMOAT-gfp fusion",membrane localization in polarized MDCK cells,MDCK cells,both apical and basolateral targeting with an increase in protein accumulation in intracellular vesicles; also recorded: non-polarized distribution
"ΔcMOAT: modified human cMOAT polypeptide wherein the C-terminal T-K-F motif was deleted, without a GFP tag",resistance to Busulfan conferred on L1210 cells,L1210 cells [1],significantly enhanced resistance to Busulfan
same,efflux of DNP-GS into the supernatant,L1210 cells [2],"significantly higher efflux; also recorded: transport 2,4-dinitrophenyl glutathione; also recorded: increased transport"
modified MDR3 polypeptide: modified human MDR3 polypeptide lacking the T-K-F motif (terminal 4 amino acids deleted),efflux of [3H]paclitaxel,L1210 cells [3],significantly higher efflux
cMOAT: native human canalicular multispecific organic anion transporter (MRP2) [reference compound],efflux of DNP-GS into the supernatant,L1210 cells [2],little evidence for the transport of DNP-GS; also recorded: minimal; also recorded: same rate of efflux
"F1545A: modified cMOAT polypeptide with Phe1545 mutated to alanine, tested as cMOAT-gfp fusion",membrane localization in polarized MDCK cells,MDCK cells,did not exhibit modified localization; also recorded: did not alter normal targeting; also recorded: same localization as the native protein
B1,efflux of 6-thio-IMP,L1210 cells [4],significantly higher efflux
